This assay has as its target CCR7-FKBP (DmrA) receptor chimaera, CCR7-M.

This is an account of results in PMC8538406.

“CXCR4-FRB (DmrC) receptor chimaera, CXCR4-H” showed a Matrigel transwell invasion of co-transfected MDA-MB-231 cells with ACH (AP21967), towards CCL19 and CXCL12 together of over 50%.
